# In patent US20070003517A1 (UNIVERSITY OF MASSACHUSETTS, published 2007):
# B1: GST-JIP-1 fusion protein containing residues 164-240 of JIP-1 (other)
# chain: PQVPRSQDTLNNNSLGKKHSWQDRVSRSSSPLKTGEQTPPHEHICLSDELPPQGSPVPTQDRGTSTDSPCRRSAATQ
# notes: not shown: glutathione-S-transferase (GST) of vector pGEX-3X
# B2: GST-JIP-1 fusion protein containing residues 203-281 of JIP-1 (other)
# chain: PHEHICLSDELPPQGSPVPTQDRGTSTDSPCRRSAATQMAPPSGPPATAPGGRGHSHRDRIHYQADVRLEATEEIYLTP
# notes: as for B1
# Experiments:
# [1] = tested on: T1, JIP-1 (as added to the in vitro protein kinase assay)
# T1 sequence: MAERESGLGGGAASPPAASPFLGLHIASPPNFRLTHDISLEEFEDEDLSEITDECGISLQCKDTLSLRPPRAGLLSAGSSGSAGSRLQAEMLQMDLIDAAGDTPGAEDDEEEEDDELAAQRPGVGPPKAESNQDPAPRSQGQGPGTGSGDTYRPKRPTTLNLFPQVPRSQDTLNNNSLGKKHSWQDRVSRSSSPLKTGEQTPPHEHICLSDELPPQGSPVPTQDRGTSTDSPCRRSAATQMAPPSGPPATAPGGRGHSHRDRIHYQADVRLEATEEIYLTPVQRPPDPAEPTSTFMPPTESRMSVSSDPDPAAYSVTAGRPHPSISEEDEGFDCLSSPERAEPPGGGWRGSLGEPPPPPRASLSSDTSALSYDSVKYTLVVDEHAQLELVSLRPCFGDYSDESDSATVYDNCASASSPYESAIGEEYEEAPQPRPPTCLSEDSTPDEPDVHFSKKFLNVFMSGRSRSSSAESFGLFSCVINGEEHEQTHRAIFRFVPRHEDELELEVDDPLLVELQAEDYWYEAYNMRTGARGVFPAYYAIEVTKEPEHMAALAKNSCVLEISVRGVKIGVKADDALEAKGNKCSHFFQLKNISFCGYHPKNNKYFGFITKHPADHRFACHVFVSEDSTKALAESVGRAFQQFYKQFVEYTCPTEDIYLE
# [2] = target: T2, Flag epitope-tagged JNK1 (cell lysate) (human, UniProt P45983-2 1-384, limits assumed); assay: GST pull-down from cell lysate, anti-Flag (M2) immunoblot
# T2 construct: written N-terminal here
# Description: To test whether JIP-1 binding to JNK is also isoform-dependent, a binding assay was utilized. Cell lysates (1 ml in TLB) containing JNK1, JNK2, or p38 MAP kinase, each tagged with the Flag epitope, were incubated with 5 μg GST-fusion proteins pre-bound to 10 μl glutathione-Sepharose. […] The GST-ATF2 fusion protein contains residues 1-109 of ATF2, and the GST-Jun fusion protein contains residues 1-79 of c-Jun. After incubation for one hour at 4° C. and three washes with TLB, bound proteins were detected by protein immunoblot analysis with the M2 monoclonal antibody, which is specific for the Flag epitope. Dérijard, et al., supra; Sluss et al., supra; Gupta et al., supra. When ATF2 or c-jun GST fusion proteins were used in this assay, binding to JNK1 was greater than binding to JNK2. This finding is consistent with the results of previous studies. […] The level of binding of these fusion proteins to JNK1 was similar to the level of binding to JNK2.
# T2 sequence (P45983 other isoform, or with tags, fused parts or gaps limits assumed): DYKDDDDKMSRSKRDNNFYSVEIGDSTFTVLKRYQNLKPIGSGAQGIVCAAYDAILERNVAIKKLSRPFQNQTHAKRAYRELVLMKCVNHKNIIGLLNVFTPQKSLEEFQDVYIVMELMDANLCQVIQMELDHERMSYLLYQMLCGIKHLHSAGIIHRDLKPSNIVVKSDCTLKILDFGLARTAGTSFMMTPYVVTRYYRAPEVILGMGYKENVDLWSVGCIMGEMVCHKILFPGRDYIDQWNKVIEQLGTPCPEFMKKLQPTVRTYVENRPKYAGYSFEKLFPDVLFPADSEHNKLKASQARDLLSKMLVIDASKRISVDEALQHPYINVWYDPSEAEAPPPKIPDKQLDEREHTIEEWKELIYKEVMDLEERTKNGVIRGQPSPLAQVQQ
molecule,measurement,setting,value
ERK2 (immune complex from CHO cells),"phosphorylation of substrate (myelin basic protein) by ERK, immune complex kinase assay",[1],JIP-1 caused no significant change in the phosphorylation of substrates by the related MAP kinases p38 and ERK2
JNK (immune complex from CHO cells),"phosphorylation of c-Jun (GST-Jun) by JNK, immune complex kinase assay",[1],JIP-1 markedly inhibited the phosphorylation of c-Jun by JNK
p38 (immune complex from CHO cells),"phosphorylation of substrate (GST-ATF2) by p38, immune complex kinase assay",[1],JIP-1 caused no significant change in the phosphorylation of substrates by the related MAP kinases p38 and ERK2
B1,binding result,[2],no binding
B2,binding result,[2],no binding
